Source: patent US20220289845A1

Experiments:
cynomolgus CD47 [1] = assay: SPR; assay 1
human CD47 [2] = biological target: human CD47 (UniProt Q08722); assay: SPR; assay 1
cynomolgus CD47 [3] = assay: SPR; assay 2
human CD47 [4] = biological target: human CD47 (UniProt Q08722); assay: SPR; assay 2
cynomolgus CD47 [5] = assay: SPR; average
human CD47 [6] = biological target: human CD47 (UniProt Q08722); assay: SPR; average

Chain of human CD47 (Q08722 19-142): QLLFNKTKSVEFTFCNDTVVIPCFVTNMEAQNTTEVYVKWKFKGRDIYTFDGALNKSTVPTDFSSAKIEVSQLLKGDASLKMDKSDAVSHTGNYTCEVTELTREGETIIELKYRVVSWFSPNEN
Chain of cynomolgus CD47 (Q08722 other isoform, or with tags, fused parts or gaps): as the sequence (Q08722 19-142) above, with V59A, T61A, D62N counted along it

In the case of Hu5F9-G4, the Kd (cynomolgus CD47 [1]) is reported as 0.0121 nM, the Kd (human CD47 [2]) is reported as 0.0143 nM and the Kd (cynomolgus CD47 [3]) is reported as 7.24 pM. The Kd (human CD47 [4]) was 2.02 pM, the Kd (cynomolgus CD47 [5]) was 0.01 nM and the Kd (human CD47 [6]) was 8 pM.
